Reference: publication PMC9199185, “The Importance of the C-Terminal Cys Pair of Phosphoribulokinase in Phototrophs in Thioredoxin-Dependent Regulation” (Plant and Cell Physiology, 2022)

B1: A.7120_PRK (Nostoc sp. PCC 7120 = FACHB-418) (protein)
chain: MTTKPERVVLIGVAGDSGCGKSTFLRRLIDLFGEEFMTVICLDDYHSLDRKQRKETGITALDPRANNFDLMYEQIKALKEGQTINKPIYNHETGLIDPPEIVKPNHIVVVEGLHPLYDERVRSLLDFSVYFDISDEVKIAWKIQRDMAERGHRYEDVLAAINSRKPDFQKYIEPQREFADVVLQVLPTNLIKDDTERKVLRVRMLQREGKEGFEPAYLFDEGSTINWTPCGRKLTCSYPGMQLYYGSDVYYGRYVSVLEVDGQFDNLEEVIYIETHLSNTSTKYQGELTQLLLQHREYPGSNNGTGFFQVLTGLKMRAAYERLTTKEAKLAVQV
notes: recombinant in E. coli BL21(DE3), pET-21a; no tag stated; Cys pairs Cys19/Cys41 and Cys230/Cys236
B2: AtPRK (Arabidopsis thaliana) (protein)
chain: AQETIVIGLAADSGCGKSTFMRRLTSVFGGAAKPPKGGNPDSNTLISDTTTVICLDDYHSLDRYGRKEQKVTALDPRANDFDLMYEQVKALKNGIAVEKPIYNHVTGLLDPPELIQPPKILVIEGLHPMFDERVRDLLDFSIYLDISNEVKFAWKIQRDMAERGHSLESIKASIEARKPDFDAFIDPQKQYADAVIEVLPTTLIPDDNEGKVLRVRLIMKEGVKYFSPVYLFDEGSTISWIPCGRKLTCSYPGIKFNYEPDSYFDHEVSVLEMDGQFDRLDELIYVESHLSNLSTKFYGEVTQQMLKHADFPGSNNGTGLFQTIVGLKIRDLYEQLIANKATARAEAKA
notes: recombinant in E. coli BL21(DE3), pET-21a; no tag stated; dimer, calculated 79,000

What was measured:
purified protein [1] = substrate: Nc1ncnc2c1ncn2[C@@H]1O[C@H](COP(=O)(O)OP(=O)(O)OP(=O)(O)O)[C@@H](O)[C@H]1O; test: purified protein; type: biochemical, Nostoc sp. PCC 7120 = FACHB-418; conditions: reduced form (pretreated with 50 mM DTTred), ATP varied 0-2 mM, 2 mM ribose 5-phosphate plus ribose 5-phosphate isomerase, 10 mM MgCl2, 100 mM KCl, pH 7.5, 30 °C
purified protein [2] = substrate: Nc1ncnc2c1ncn2[C@@H]1O[C@H](COP(=O)(O)OP(=O)(O)OP(=O)(O)O)[C@@H](O)[C@H]1O; test: purified protein; type: biochemical, Arabidopsis thaliana; conditions: reduced form (pretreated with 50 mM DTTred), ATP varied 0-2 mM, 2 mM ribose 5-phosphate plus ribose 5-phosphate isomerase, 10 mM MgCl2, 100 mM KCl, pH 7.5, 25 °C

Protein | Km (purified protein [1]) [µM] | Vmax (purified protein [1]) [µmol/min/mg] | Km (purified protein [2]) [µM] | Vmax (purified protein [2]) [µmol/min/mg]
B1 | 109 ± 4.5 | 214 | – | –
B2 | – | – | 46.5 ± 6.5 | 289
